# According to patent publication US20080269139A1 (GENENCOR INTERNATIONAL, published 2008):
# Positions count from the first letter of the chain named.
# B1: 2H9 peptide-BLA fusion (other)
# chain: CHYLLTNYCTPVSEKQLAEVVANTITPLMKAQSVPGMAVAVIYQGKPHYYTFGKADIAANKPVTPQTLFELGSISKTFTGVLGGDAIARGEISLDDAVTRYWPQLTGKQWQGIRMLDLATYTAGGLPLQVPDEVTDNASLLRFYQNWQPQWKPGTTRLYANASIGLFGALAVKPSGMPYEQAMTTRVLKPLKLDHTWINVPKAEEAHYAWGYRDGKAVRVSPGMLDAQAYGVKTNVQDMANWVMANMAPENVADASLKQGIALAQSRYWRIGSMYQGLGWEMLNWPVEANTVVEGSDSKVALAPLPVAEVNPPAPPVKASWVHKTGSTGGFGSYVAFIPEKQIGIVMLANTSYPNPARVEAAYHILEALQHHHHHH
# B2: 2E2 peptide-BLA fusion (other)
# chain: B1 chain with H2L, Y3T, L4V, T6W, N7T, Y8T
# B3: 1A6 peptide-BLA fusion (other)
# chain: B1 chain with H2E, Y3E, L4I, L5W, N7M, Y8L
# B4: 2H10 peptide-BLA fusion (other)
# chain: B1 chain with H2R, Y3I, L4H, T6A, N7H, Y8K
# Target: T1, FGF-5 (UniProt P12034 23-268, limits assumed, biotinylated with EZ-Link Sulfo-NHS-Biotin in the BioVeris assay only)
# T1 construct: also called bFGF5 (biotinylated, BioVeris assay); FGF-5, carrier-free (R&D Systems #237-F5/CF)
# T1 sequence (looked up): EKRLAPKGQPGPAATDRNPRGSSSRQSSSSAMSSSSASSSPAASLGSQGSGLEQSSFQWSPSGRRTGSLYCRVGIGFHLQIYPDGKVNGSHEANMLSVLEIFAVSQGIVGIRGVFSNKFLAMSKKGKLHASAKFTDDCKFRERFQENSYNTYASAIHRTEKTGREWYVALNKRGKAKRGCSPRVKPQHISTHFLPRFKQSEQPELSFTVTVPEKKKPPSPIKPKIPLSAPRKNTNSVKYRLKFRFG
# Test: BLA binding assay, purified peptide-BLA fusion on FGF-5-coated plate, nitrocefin
row,Binder,Percent Bound at 0.1 nM
1,B1,5%
2,B2,7%
3,B3,8%
4,B4,8%
